Molecular target: TcdB4.2 (full-length recombinant toxin B variant 4.2) (Clostridioides difficile)
Test: BLI; as a1, KD calculated with the BLItz system software from the indicated concentrations (Supplementary Fig. 7); KD called estimated
Settings: both partners purified

B1: mTFPI-Fc (Fc-tagged mouse TFPI) (Fc fusion)
chain: LSEEADDTDSELGSMKPLHTFCAMKADDGPCKAMIRSYFFNMYTHQCEEFIYGGCEGNENRFDTLEECKKTCIPGYEKTAVKAASGAERPDFCFLEEDPGLCRGYMKRYLYNNQTKQCERFVYGGCLGNRNNFETLDECKKICENPVHSPSPVNEVQMSDYVTDGNTVTDRSTVNNIVVPQSPKVPRRR
notes: source: Expi293F, transfected, purified from culture medium as His-tagged protein
Question: With B1 as the binder, how does the Kd read?
Answer: ~0.063 µM

From publication PMC9646764 (Nature Communications, 2022)
